Test results as given in PMC8276246, “Unlimited Cooperativity of Betatectivirus SSB, a Novel DNA Binding Protein Related to an Atypical Group of SSBs From Protein-Primed Replicating Bacterial Viruses”.

What was measured:
[1] = test system: B35SSB (Bacillus phage Bam35 (betatectivirus)); test: EMSA; settings: EMSA: 50 mM Tris-HCl pH 7.5, 50 mM NaCl, 1 mM DTT, 4% glycerol, 0.1 mg/ml BSA, 0.05% Tween 20, 1 mM EDTA, 10 min at 4 C, 2 nM labeled probe
EcoSSB = EcoSSB (Escherichia coli, UniProt P0AGE0 1-178); test: EMSA; 1 uM protein; EMSA: 50 mM Tris-HCl pH 7.5, 50 mM NaCl, 1 mM DTT, 4% glycerol, 0.1 mg/ml BSA, 0.05% Tween 20, 1 mM EDTA, 10 min at 4 C; 2 nM labeled probe; settings: chain copies: 4; label: 5' 32P
[2] = target: T1, Φ29 terminal protein (Φ29TP) (Bacillus phage Φ29, UniProt P03681 1-266); test: EMSA; 20 nM protein; EMSA: 50 mM Tris-HCl pH 7.5, 50 mM NaCl, 1 mM DTT, 4% glycerol, 0.1 mg/ml BSA, 0.05% Tween 20, 1 mM EDTA, 10 min at 4 C; 2 nM labeled probe; settings: label: 5' 32P on strand 1; blunt
T1 sequence: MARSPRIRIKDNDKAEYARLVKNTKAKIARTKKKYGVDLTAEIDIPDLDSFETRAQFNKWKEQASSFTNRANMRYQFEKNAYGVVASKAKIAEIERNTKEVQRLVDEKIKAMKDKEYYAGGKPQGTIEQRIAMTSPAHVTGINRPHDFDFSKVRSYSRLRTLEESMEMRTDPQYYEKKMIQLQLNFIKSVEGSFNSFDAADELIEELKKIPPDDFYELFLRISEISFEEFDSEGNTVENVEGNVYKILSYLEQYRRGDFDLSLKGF

Sequence of EcoSSB (P0AGE0 whole entry): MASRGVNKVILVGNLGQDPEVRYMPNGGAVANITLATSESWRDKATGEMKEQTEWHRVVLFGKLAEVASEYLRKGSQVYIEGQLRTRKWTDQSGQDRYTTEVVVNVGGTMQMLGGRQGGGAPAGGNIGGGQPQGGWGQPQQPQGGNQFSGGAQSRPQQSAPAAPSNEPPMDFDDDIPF

Molecule: ACTGGCCGTCGTTCTATTGTACTCACTGTGATC [33-mer]
- binding signal ([1]; 500 nM protein (25% bound at 250 nM)): 50 % bound

Molecule: GATCACAGTGAGTAC [15-mer]
- binding signal ([1]; 1 uM protein, minor smear): < 10 % bound

Molecule: GAAAAUAAAAAUAAACUGGACAAUUAAGGAUCCUGUACAAGUCGACGCGG [RNA-50mer]
- binding signal ([1]; 5 uM protein): 10 % bound

Molecule: GGCCCATATGTACCCATACGACGTCCCAGACTACGCTGGGACGGGGAGCGGGGCCAGTAAACTACTGACTGCGCAAGAGG [80-mer]
- binding signal ([1]; 250 nM protein): 70 % bound

Molecule: GAAAATAAAAATAAACTGGACAATTAAGGATCCTGTACAAGTCGACGCGG (ssDNA) [50-mer]
- binding result (EcoSSB): binds

B1: 50-mer dsDNA (dsDNA)
DNA 1: GAAAATAAAAATAAACTGGACAATTAAGGATCCTGTACAAGTCGACGCGG
DNA 2: CCGCGTCGACTTGTACAGGATCCTTAATTGTCCAGTTTATTTTTATTTTC
- binding result [2]: binds

Molecule: GAAAAUAAAAAUAAACUGGACAAUUAAGGAUCCUGUACAAGUCGACGCGG (ssRNA) [RNA-50mer]
- binding result (EcoSSB): binds
